Residue numbers refer to the chain shown, from its start.

Test [1] concerns the target rPcrV protein (recombinant Pseudomonas PcrV) (Pseudomonas aeruginosa). Put plainly: SPR on Bio-Rad ProteOn XPR36; antibody captured on GLC chip with anti-human IgG, rPcrV injected at multiple concentrations.
Test [2] has the same target. The test can be described thus: SPR on Bio-Rad ProteOn XPR36; antibody captured on GLC chip with anti-human IgG, rPcrV injected at multiple concentrations [table].
Test [3] has the same target. The test can be described thus: Bio-Rad ProteOn XPR36; antibody captured by anti-human IgG on GLC chip, rPcrV injected.

B1: V2L2-germlined mAb (V2L2-GL) (antibody, V domains shown)
VH: EVQLLESGGGLVQPGGSLRLSCAASGFTFSSYAMNWVRQAPGKGLEWVSAITISGITAYYTDSVKGRFTISRDNSKNTLYLQMNSLRAEDTAVYYCAKEEFLPGTHYYYGMDVWGQGTTVTVSS
VL: AIQMTQSPSSLSASVGDRVTITCRASQGIRNDLGWYQQKPGKAPKLVIYSASTLQSGVPSRFSGSGSGTDFTLSISSLQPDDFATYYCLQDYNYPWTFGQGTKVEIK
The Kd is a measure of binding affinity in units of concentration. By koff is commonly meant the first-order rate constant of dissociation. The term kon denotes the second-order rate constant of association. Regarding B1, in test [1], the Kd came to 0.143 nM, the off-rate constant (koff) came out at 0.000116 s⁻¹ and the kon came to 808000 M⁻¹ s⁻¹. In test [2], the Kd turned out to be 0.143 nM, the koff worked out at 0.000116 s⁻¹ and the kon is 808000 M⁻¹ s⁻¹.

B2: V2L2-MD (germlined lead optimized V2L2) (antibody, V domains shown)
VH: B1 VH with I53M, S63D
VL: B1 VL with V47L, S74T, D81E
As to B2, the fold increase in Kd over V2L2-GL in test [3] was 2 to 3 fold. Also, in test [1], the Kd is 0.0456 nM, the koff stood at 4.03e-05 s⁻¹ and the kon was 884000 M⁻¹ s⁻¹. In test [2], the Kd turned out to be 0.046 nM, the koff is 4.03e-05 s⁻¹ and the kon came to 884000 M⁻¹ s⁻¹.

The values are drawn from US20150284450A1, “COMBINATION THERAPIES USING ANTI-PSEUDOMONAS PSL AND PCRV BINDING MOLECULES” (priority 2012, published 2015).
